18 molecules from US20060257406A1 (published 2006) can be followed below.

Like-named read-outs stand apart in the source and are kept apart here.

The target in test [1] is T1, human TNFα (human, UniProt P01375 77-233).
T1 construct: also called TAR1; TNF alpha
Nature of the test: TNF receptor assay (ELISA): inhibition of TNF binding to plate-bound TNF receptor 1-Fc.

For test [2], the target named is T1, human TNFα. Nature of the test: cell-based or functional assay.
Test [3] deals with T1, human TNFα. Kind of test: TNF receptor assay (ELISA): inhibition of TNF binding to plate-bound TNF receptor 1-Fc. The source holds these as a separate data set. On the technique in general: An ELISA detects its analyte on a solid surface through an enzyme-linked reagent.
Test [4] deals with T1, human TNFα. Described as above. The source holds these as a separate data set.
Another test has as its target T2, mouse serum albumin (mouse, UniProt P07724 25-608).
T2 construct: biotinylated MSA (about 2 biotins per molecule) in the capture ELISA; also called MSA
Nature of the test: capture ELISA: dAb on protein L, biotinylated MSA, streptavidin-HRP. The protocol:
Two rounds of selection were performed on serum albumin using each of the libraries separately. For each selection, antigen was coated on immunotube (nunc) in 4 ml of PBS at a concentration of 100 μg/ml. In the first round of selection, each of the three libraries was panned separately against HSA (Sigma) and MSA (Sigma). In the second round of selection, phage from each of the six first round selections was panned against (i) the same antigen again (eg 1st round MSA, 2nd round MSA) and (ii) against the reciprocal antigen (eg 1st round MSA, 2nd round HSA) resulting in a total of twelve 2nd round selections. In each case, after the second round of selection 48 clones were tested for binding to HSA and MSA. Soluble dAb fragments were produced as described for scFv fragments by Harrison et al, Methods Enzymol. 1996; 267:83-109 and standard ELISA protocol was followed (Hoogenboom et al. (1991) Nucleic Acids Res., 19: 4133) except that 2% tween PBS was used as a blocking buffer and bound dabs were detected with either protein LHRP (Sigma) (for the Vκs) and protein A—HRP (Amersham Pharmacia Biotech) (for the VHs).
Next, the serum albumin binding dAbs were tested for their ability to capture biotinylated antigen from solution. ELISA protocol (as above) was followed except that ELISA plate was coated with 1 μg/ml protein L (for the Vκ clones) and 1 μg/ml protein A (for the VH clones). Soluble dAb was captured from solution as in the protocol and detection was with biotinylated MSA or HSA and streptavidin HRP. The biotinylated MSA and HSA had been prepared according to the manufacturer's instructions, with the aim of achieving an average of 2 biotins per serum albumin molecule. […] Next, the dAbs were tested for their ability to bind MSA coated on a CM5 biacore chip.

The target of test [5] is T1, human TNFα. Nature of the test: TNF receptor assay (ELISA): inhibition of TNF binding to plate-bound TNF receptor 1-Fc. This is another data set of the same source.

A word on the IC50: it is the concentration that gives 50% inhibition. Low readings indicate greater potency, high ones weaker potency.

T1 sequence (P01375 77-233 limits assumed): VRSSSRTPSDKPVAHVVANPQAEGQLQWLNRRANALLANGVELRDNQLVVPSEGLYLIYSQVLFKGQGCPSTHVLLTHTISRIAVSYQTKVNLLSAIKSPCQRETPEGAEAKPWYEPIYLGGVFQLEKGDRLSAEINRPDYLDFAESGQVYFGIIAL
T2 sequence (P07724 25-608 limits assumed): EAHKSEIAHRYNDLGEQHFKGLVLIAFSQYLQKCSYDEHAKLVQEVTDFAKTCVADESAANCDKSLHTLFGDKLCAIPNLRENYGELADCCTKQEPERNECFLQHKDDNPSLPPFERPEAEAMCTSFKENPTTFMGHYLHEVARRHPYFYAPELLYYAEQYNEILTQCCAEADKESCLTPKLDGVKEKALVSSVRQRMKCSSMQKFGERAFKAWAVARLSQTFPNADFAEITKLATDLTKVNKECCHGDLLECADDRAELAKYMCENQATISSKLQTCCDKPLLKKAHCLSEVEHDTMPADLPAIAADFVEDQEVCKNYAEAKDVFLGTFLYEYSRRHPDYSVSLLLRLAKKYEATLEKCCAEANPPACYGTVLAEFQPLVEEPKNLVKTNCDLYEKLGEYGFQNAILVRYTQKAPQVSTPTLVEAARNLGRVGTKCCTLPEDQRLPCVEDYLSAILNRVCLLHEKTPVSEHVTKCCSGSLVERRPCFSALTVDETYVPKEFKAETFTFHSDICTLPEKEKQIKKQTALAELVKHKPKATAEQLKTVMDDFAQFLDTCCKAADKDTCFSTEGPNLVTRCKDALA

B1: TAR1-5-19 cys hinge (other)
chain: DIQMTQSPSSLSASVGDRVTITCRASQSIDSYLHWYQQKPGKAPKLLIYSASELQSGVPSRFSGSGSGTDFTLTISSLQPEDFATYYCQQVVWRPFTFGQGTKVEIKREPKSGDKTHFCPPCP
notes: also called cysteine hinge linker format; hinge dimer
For B1, in the test with human TNFα [1], the half-maximal inhibitory concentration (IC50) is around 2 nM.

B2: TAR1-5-19 3U homodimer (other)
chain: DIQMTQSPSSLSASVGDRVTITCRASQSIDSYLHWYQQKPGKAPKLLIYSASELQSGVPSRFSGSGSGTDFTLTISSLQPEDFATYYCQQVVWRPFTFGQGTKVEIKRGGGGSGGGGSGGGGSDIQMTQSPSSLSASVGDRVTITCRASQSIDSYLHWYQQKPGKAPKLLIYSASELQSGVPSRFSGSGSGTDFTLTISSLQPEDFATYYCQQVVWRPFTFGQGTKVEIKR
notes: also called TAR1-5-19 homodimer with (Gly4Ser)3 linker
Regarding B2, the IC50 with human TNFα [1] is around 20 nM. The “CA (cell assay) ND50” value in the test with human TNFα [2] was around 30 nM.

B3: TAR1-5-19 7U homodimer (other)
chain: DIQMTQSPSSLSASVGDRVTITCRASQSIDSYLHWYQQKPGKAPKLLIYSASELQSGVPSRFSGSGSGTDFTLTISSLQPEDFATYYCQQVVWRPFTFGQGTKVEIKRGGGGSGGGGSGGGGSGGGGSGGGGSGGGGSGGGGSDIQMTQSPSSLSASVGDRVTITCRASQSIDSYLHWYQQKPGKAPKLLIYSASELQSGVPSRFSGSGSGTDFTLTISSLQPEDFATYYCQQVVWRPFTFGQGTKVEIKR
notes: also called TAR1-5-19 homodimer with (Gly4Ser)7 linker
Molecule B3 displayed an IC50 in the test with human TNFα [1] of around 10 nM. Also, in the test with human TNFα [2], the “CA (cell assay) ND50” value is around 15 nM.

B4: TAR1-5d6 (other)
chain: DIQMTQSPSSLSASVGDRVTITCRASQSIFMNLLWYQQKPGKAPKLLIYNASVLQSGVPSRFSGSGSGTDFTLTISSLQPEDFATYYCQQVVWRPFTFGQGTKVEIKRGGGGSGGGGSGGGGSGGGGSGGGGSGGGGSGGGGSDIQMTQSPSSLSASVGDRVTITCRASQSIYDALEWYQQKPGKAPKLLIYTASRLQSGVPSRFSGSGSGTDFTLTISSLQPEDFATYYCQQVMQRPVTFGQGTKVEIK
notes: FPLC purified large dimeric species; also called dimer 6
In turn, B4 yielded a half-maximal inhibitory concentration (IC50) with human TNFα [3] of around 100 nM.

B5: TAR1-5-19 d6 (other)
chain: DIQMTQSPSSLSASVGDRVTITCRASQSIDSYLHWYQQKPGKAPKLLIYSASELQSGVPSRFSGSGSGTDFTLTISSLQPEDFATYYCQQVVWRPFTFGQGTKVEIKRGGGGSGGGGSGGGGSGGGGSGGGGSGGGGSGGGGSDIQMTQSPSSLSASVGDRVTITCRASQSIYDALEWYQQKPGKAPKLLIYTASRLQSGVPSRFSGSGSGTDFTLTISSLQPEDFATYYCQQVMQRPVTFGQGTKVEIK
Consider B5, for which the IC50 with human TNFα [4] is around 10 nM.

B6: TAR1-5d1 (other)
chain: DIQMTQSPSSLSASVGDRVTITCRASQSIFMNLLWYQQKPGKAPKLLIYNASVLQSGVPSRFSGSGSGTDFTLTISSLQPEDFATYYCQQVVWRPFTFGQGTKVEIKRGGGGSGGGGSGGGGSDIQMTQSPSSLSASVGDRVTITCRASQSIYDALEWYQQKPGKAPKLLIYTASRLQSGVPSRFSGSGSGTDFTLTISSLQPEDFATYYCQQVMQRPVTFGQGTKVEIK
notes: dAb-linker-dAb dimer; FPLC purified small dimeric species; also called dimer 1
On to B6, for which, in the test with human TNFα [3], the IC50 is around 30 nM.

B7: TAR1-5-19 d1 (other)
chain: DIQMTQSPSSLSASVGDRVTITCRASQSIDSYLHWYQQKPGKAPKLLIYSASELQSGVPSRFSGSGSGTDFTLTISSLQPEDFATYYCQQVVWRPFTFGQGTKVEIKRGGGGSGGGGSGGGGSDIQMTQSPSSLSASVGDRVTITCRASQSIYDALEWYQQKPGKAPKLLIYTASRLQSGVPSRFSGSGSGTDFTLTISSLQPEDFATYYCQQVMQRPVTFGQGTKVEIK
On to B7, for which the IC50 with human TNFα [4] was around 15 nM.

B8: TAR1-5d5 (other)
chain: DIQMTQSPSSLSASVGDRVTITCRASQSIFMNLLWYQQKPGKAPKLLIYNASVLQSGVPSRFSGSGSGTDFTLTISSLQPEDFATYYCQQVVWRPFTFGQGTKVEIKRGGGGSGGGGSGGGGSGGGGSGGGGSDIQMTQSPSSLSASVGDRVTITCRASQSIYDALEWYQQKPGKAPKLLIYTASRLQSGVPSRFSGSGSGTDFTLTISSLQPEDFATYYCQQVMQRPVTFGQGTKVEIK
notes: FPLC purified large dimeric species; also called dimer 5
B8 registered an IC50 with human TNFα [3] of around 200 nM.

B9: TAR1-5-19d5 (other)
scFv: DIQMTQSPSSLSASVGDRVTITCRASQSIDSYLHWYQQKPGKAPKLLIYSASELQSGVPSRFSGSGSGTDFTLTISSLQPEDFATYYCQQVVWRPFTFGQGTKVEIKRGGGGSGGGGSGGGGSGGGGSGGGGSDIQMTQSPSSLSASVGDRVTITCRASQSIYDALEWYQQKPGKAPKLLIYTASRLQSGVPSRFSGSGSGTDFTLTISSLQPEDFATYYCQQVMQRPVTFGQGTKVEIK
In the test with human TNFα [4], B9 registered a half-inhibitory concentration (IC50) of around 8 nM.

B10: TAR1-5d4 (other)
chain: DIQMTQSPSSLSASVGDRVTITCRASQSIFMNLLWYQQKPGKAPKLLIYNASVLQSGVPSRFSGSGSGTDFTLTISSLQPEDFATYYCQQVVWRPFTFGQGTKVEIKRGGGGSGGGGSGGGGSGGGGSGGGGSDIQMTQSPSSLSASVGDRVTITCRASQSVKEFLWWYQQKPGKAPKLLIYMASNLQSGVPSRFSGSGSGTDFTLTISSLQPEDFATYYCQQKFKLPRTFGQGTKVEIK
notes: FPLC purified small dimeric species; also called TAR1-5 dimer 4
For the molecule B10, the IC50 in the test with human TNFα [3] is around 3 nM.

B11: TAR1-5-19 5U homodimer (other)
chain: DIQMTQSPSSLSASVGDRVTITCRASQSIDSYLHWYQQKPGKAPKLLIYSASELQSGVPSRFSGSGSGTDFTLTISSLQPEDFATYYCQQVVWRPFTFGQGTKVEIKRGGGGSGGGGSGGGGSGGGGSGGGGSDIQMTQSPSSLSASVGDRVTITCRASQSIDSYLHWYQQKPGKAPKLLIYSASELQSGVPSRFSGSGSGTDFTLTISSLQPEDFATYYCQQVVWRPFTFGQGTKVEIKR
notes: also called TAR1-5-19 homodimer with (Gly4Ser)5 linker
The molecule B11 came in with an IC50 with human TNFα [1] of around 2 nM. Besides, the “CA (cell assay) ND50” value with human TNFα [2] was around 3 nM.

B12: anti-serum albumin Vκ dAb clones 30, 35 (other)
VL: DIQMTQSPSSLSASVGDRVTITCRASQSIRRYLKWYQQKPGKAPKLLIYQASVLQSGVPSRFSGSGSGTDFTLTISSLQPEDFATYYCQQGLYPPITFGQGTKVEIK
Take B12: the binding result with mouse serum albumin is given as “binds”.

B13: dAb3CH/TAR1-5CK (Fab, V domains shown)
V domain 1: DIQMTQSPSSLSASVGDRVTITCRASQSVKEFLWWYQQKPGKAPKLLIYMASNLQSGVPSRFSGSGSGTDFTLTISSLQPEDFATYYCQQKFKLPRTFGQGTKVEIK
V domain 2: DIQMTQSPSSLSASVGDRVTITCRASQSIFMNLLWYQQKPGKAPKLLIYNASVLQSGVPSRFSGSGSGTDFTLTISSLQPEDFATYYCQQVVWRPFTFGQGTKVEIK
notes: also called TAR1-5CK d3CH
In turn, B13 displayed a 50% inhibitory concentration (IC50) in the test with human TNFα [5] of around 100 nM.

B14: TAR1-5-19CH/dAb1 CK (Fab, V domains shown)
V domain 1: DIQMTQSPSSLSASVGDRVTITCRASQSIDSYLHWYQQKPGKAPKLLIYSASELQSGVPSRFSGSGSGTDFTLTISSLQPEDFATYYCQQVVWRPFTFGQGTKVEIK
V domain 2: DIQMTQSPSSLSASVGDRVTITCRASQSIYDALEWYQQKPGKAPKLLIYTASRLQSGVPSRFSGSGSGTDFTLTISSLQPEDFATYYCQQVMQRPVTFGQGTKVEIK
notes: also called TAR1-5-19CH d1CK
The molecule B14 displayed an IC50 with human TNFα [5] of around 6 nM.

B15: dAb1 CH/TAR1-5-19CK (Fab, V domains shown)
V domain 1: DIQMTQSPSSLSASVGDRVTITCRASQSIYDALEWYQQKPGKAPKLLIYTASRLQSGVPSRFSGSGSGTDFTLTISSLQPEDFATYYCQQVMQRPVTFGQGTKVEIK
V domain 2: DIQMTQSPSSLSASVGDRVTITCRASQSIDSYLHWYQQKPGKAPKLLIYSASELQSGVPSRFSGSGSGTDFTLTISSLQPEDFATYYCQQVVWRPFTFGQGTKVEIK
notes: also called TAR1-5-19CK d1CH
For B15, the IC50 with human TNFα [5] was around 6 nM.

B16: TAR1-5-19CH/dAb3CK (Fab, V domains shown)
V domain 1: DIQMTQSPSSLSASVGDRVTITCRASQSIDSYLHWYQQKPGKAPKLLIYSASELQSGVPSRFSGSGSGTDFTLTISSLQPEDFATYYCQQVVWRPFTFGQGTKVEIK
V domain 2: DIQMTQSPSSLSASVGDRVTITCRASQSVKEFLWWYQQKPGKAPKLLIYMASNLQSGVPSRFSGSGSGTDFTLTISSLQPEDFATYYCQQKFKLPRTFGQGTKVEIK
notes: also called TAR1-5-19CH d3CK
B16: in the test with human TNFα [5], the IC50 was around 3 nM.

B17: anti-serum albumin Vκ dAb clones 46, 47, 52, 56 (other)
VL: DIQMTQSPSSLSASVGDRVTITCRASQSIFKSLKWYQQKPGKAPKLLIYNASYLQSGVPSRFSGSGSGTDFTLTISSLQPEDFATYYCQQVVYWPVTFGQGTKVEIK
notes: same printed CDRs as clone 55
Turning to B17, in the test with mouse serum albumin, the binding result is recorded as “binds”.

B18: TAR1-5CH/dAb1 CK (Fab, V domains shown)
V domain 1: DIQMTQSPSSLSASVGDRVTITCRASQSIFMNLLWYQQKPGKAPKLLIYNASVLQSGVPSRFSGSGSGTDFTLTISSLQPEDFATYYCQQVVWRPFTFGQGTKVEIK
V domain 2: DIQMTQSPSSLSASVGDRVTITCRASQSIYDALEWYQQKPGKAPKLLIYTASRLQSGVPSRFSGSGSGTDFTLTISSLQPEDFATYYCQQVMQRPVTFGQGTKVEIK
B18: the IC50 with human TNFα [5] was around 90 nM.
